Assays:
[1] = molecular target: T1, ERK2 (Rattus norvegicus, UniProt P63086); conditions: [17], cited from earlier work; for Kd: ERK2, values previously published, ref [14], [15], [18]; for tighter binding to ERK2 than to p38α: HePTP residues 15–339 and HePTP KIM-peptide residues 15–31, ref [16]
T1 construct: gene Mapk1; made in house
Text: Over the last years different groups, including ours, have studied the interaction of MAPK regulatory proteins, as well as substrates, with different MAPKs, especially ERK2, p38 and JNK [12]–[17]. However, while a plethora of cell biological data is available, much less systematic interaction data using quantitative methods, such as isothermal titration calorimetry (ITC), has been reported. This is of special interest, as recent studies have shown that while KIM-peptides derived from KIM-containing regulatory proteins and substrates readily discriminate between ERK2/p38 and JNK, they discr ... || We used ITC measurements to determine the binding affinity of STEP and PTPSL for unphosphorylated ERK2 ( Table 1; Figure S1). […] This complex has a ∼3-times lower Kd (tighter binding) than the next tightest complex, ERK2:PTPSL, and a nearly 70-fold greater affinity than the weakest complex, p38α:HePTP [15]. Like STEP, PTPSL binds ERK2 more tightly (∼3.5-fold) than p38α. We also tested peptides that include the kinase specificity s ... || Figure 3 Regulatory protein-MAPK interaction strengths. The binding strengths of each KIM-PTP (KIM peptides and KIM-containing MKBDs (in orange font), light blue; KIMKIS peptides, light purple; proteins, light pink) to p38α and ERK2 represented from weakest to tightest (largest Kd to smallest Kd) binding affinity; ‘^†’ indicates values previously published, [15], [17], [18]. KIM-PTP:MAPK complexes determined to be extended using SAXS written in normal text; KIM-PTP:MAPK complexes determined to be compact written in italics; *, compact nature of the ERK2-PTPSL complex determined by ...

[2] = molecular target: T1, ERK2; assay: Isothermal titration calorimetry with ERK2; assay type: binding
Procedure: The PTPSLKIM peptide (residues 331–348), STEPKIM (residues 213–229) and STEPKIMKIS (residues 213–256) were synthesized, HPLC purified and verified by mass spectrometry (MS) (>98% purity; Biosynthesis, Inc.). Expression and purification of ERK2 and PTPSLKIMKIS (residues 332–373) was carried out as previously described, [15]. PTPSL (residues 332–655, human), STEP (residues 213–539, mouse) and PSChimera (PTPSL residues 332–373 with STEP residues 257–539; gene synthesized by DNA 2.0) were expressed and purified using the protocol previously described in detail for STEPCAT (residues 244–539). The DUSP16 MAPK binding domain (residues 5–138, human) was expressed and purified as previously described. All purified proteins were stored at −80 °C until use at which point they were thawed and exchanged into the appropriate buffer using size exclusion chromatography (SEC; Superdex 75 26/60; GE Healthcare). The final protein buffer was dependent on the experiment performed. For ITC experiments, the final SEC purification was performed in ITC buffer (10 mM Tris pH 7.5, 150 mM NaCl, 0.1 mM EDTA, 0.5 mM TCEP); for SAXS experiments, the final SEC purification was performed in SAXS buffer (50 mM HEPES pH 6.8, 150 mM NaCl, 5 mM dithiothreitol). PTPSLKIM, STEPKIM and STEPKIMKIS peptides were solubilized in ITC buffer prior to ITC measurements.
ITC experiments were performed at 25 °C using a VP-ITC microcalorimeter (Microcal Inc.). Titrant (10 μL per injection) was injected into the sample cell over a period of 20 seconds with a 250 second interval between titrations to allow for complete equilibration and baseline recovery. 28 injections were delivered during each experiment and the solution in the sample cell was stirred at 307 rpm to ensure rapid mixing. To determine the thermodynamic parameters (ΔH, ΔS, ΔG) and binding constants (K) of the ERK2:PTPSLKIM, ERK2:PTPSL, ERK2:STEP and ERK2:PSChimera interactions, PTPSLKIM, PTPSL, STEP and PSChimera were titrated into ERK2. To determine the same parameters for the ERK2:STEPKIM, ERK2:PTPSLKIMKIS and ERK2:STEPKIMKIS interaction, ERK2 was titrated into the peptides. Titrants were chosen based on the amount of purified protein/peptide available for the experiment. For all titrations the concentrations were slightly varied to ensure independence of the Kd from the protein/peptide concentrations. Data were analyzed with a one-site binding model assuming a binding stoichiometry of 1∶1 using Origin 7.0 software. A nonlinear least-squares algorithm and the titrant and sample cell concentrations were used to fit the heat flow per injection to an equilibrium binding equation, providing values of the stoichiometry (n), change in enthalpy (ΔH) and binding constant (K). All data were repeated in triplicate.

[3] = molecular target: p38α; conditions: ref [14], cited from earlier work; for Kd: values previously published, [15], [17], [18]
Text: We used ITC measurements to determine the binding affinity of STEP and PTPSL for unphosphorylated ERK2 ( Table 1; Figure S1). […] This complex has a ∼3-times lower Kd (tighter binding) than the next tightest complex, ERK2:PTPSL, and a nearly 70-fold greater affinity than the weakest complex, p38α:HePTP [15]. Like STEP, PTPSL binds ERK2 more tightly (∼3.5-fold) than p38α. We also tested peptides that include the kinase specificity s ... || We also generated a chimeric protein in which we fused the PTPSLKIMKIS to STEPCAT (PSchimera; Figure 1A ). […] Thus, they only adopt a single conformation when they bind their respective MAPKs. This is different from the MAPK-binding domains (MKBD) of MAPK phosphatases (MKP; dual specificity phosphatases; DUSPs), [26]. In MKPs, the KIM sequence is part of a stable, folded domain and thus adopts a single, ordered conformation in both the unbound and MAPK-bound states, [28]. […] Our ... || (+ 1 further places)

[4] = tested on: p38α; conditions: NMR spectroscopy; ref [14]; cited from earlier work
Text: Although there are a few structural differences between ERK2 and p38α in this region (e.g., the activation loop is six residues longer in ERK2), nearly all residues that that we sh ... || The KIM domains of KIM-PTPs are intrinsically disordered in solution [14], [15]. Thus, they only adopt a single conformation when they bind their respective MAPKs. This is different from the MAPK-binding domains (MKBD) of MAPK phosphatases (MKP; dual specificity phosphatases; DUSPs), [26]. In MKPs, the KIM sequence is part of a stable, folded domain and thus adopts a single, ordered conformation in both the unbound and MAPK-bound states, [28]. […] Our ...

[5] = molecular target: T2, extracellular signal-regulated kinase 2 (ERK2), unphosphorylated (UniProt P63086 1-358); assay: ITC; ERK2 titrated into STEPKIM, PTPSL KIMKIS or STEP KIMKIS in the cell; 25 °C; 10 mM Tris pH 7.5, 150 mM NaCl, 0.1 mM EDTA, 0.5 mM TCEP; one-site model; triplicate; conditions: both partners purified
T2 construct: ERK2 (extracellular signal-regulated kinase 2), unphosphorylated; also called MAPK; source: final SEC (Superdex 75 26/60)

[6] = molecular target: T2, extracellular signal-regulated kinase 2 …; assay: ITC; PTPSLKIM, PTPSL, STEP or PSChimera titrated into ERK2 in the cell; 25 °C; 10 mM Tris pH 7.5, 150 mM NaCl, 0.1 mM EDTA, 0.5 mM TCEP; one-site model; triplicate; conditions: both partners purified
[7] = molecular target: T1, ERK2; conditions: ref [16], cited from earlier work
[8] = ERK2:HePTP resting-state complex

## HePTPKIM: HePTP KIM-peptide (residues 15–31) (TLSLGAAMTQPPPEKTP; KIM peptide; UniProt P35236 15-31, looked up, fragment) [reference compound]
[1]
  Kd: 1280 ± 110 nM
  tighter binding to ERK2 than to p38α: ~4 times
[2]; KIM peptides of the KIM-PTPs
  differences in affinity of KIM peptides for ERK2 versus p38α: 4.0
[3]
  Kd: 5150 ± 1290 nM

## HePTPKIMKIS: HePTP KIMKIS peptide, values previously published (VRLQERRGSNVALMLDVRSLGAVEPICSVNTPREVTLHFLRT)
[1]
  Kd: 679 ± 122 nM

B1: STEPCAT: STEPCAT (residues 244–539), catalytic domain of STEP (protein, UniProt P54829 244-539, looked up, fragment)
chain: GSNVSLTLDMCTPGCNEEGFGYLMSPREESAREYLLSASRVLQAEELHEKALDPFLLQAEFFEIPMNFVDPKEYDIPGLVRKNRYKTILPNPHSRVCLTSPDPDDPLSSYINANYIRGYGGEEKVYIATQGPIVSTVADFWRMVWQEHTPIIVMITNIEEMNEKCTEYWPEEQVAYDGVEITVQKVIHTEDYRLRLISLKSGTEERGLKHYWFTSWPDQKTPDRAPPLLHLVREVEEAAQQEGPHCAPIIVHCSAGIGRTGCFIATSICCQQLRQEGVVDILKTTCQLRQDRGGMI
modifications: catalytic domain
notes: STEPCAT (residues 244–539), catalytic domain of STEP
[4]
  interaction with p38α by NMR (in words): interacts directly with p38α

B2: STEP KIMKIS peptide (STEP residues 213-256) (peptide, UniProt P54830 213-256, looked up)
peptide: MGLQERRGSNVSLTLDMCTPGCNEEGFGYLVSPREESAHEYLLS
notes: STEP (PTPN5), residues 213-256 (KIM and KIS); mouse is stated for the STEP 213-539 construct; source: synthetic peptide (Biosynthesis, Inc.), HPLC purified, >98% purity
[5]
  Kd: 123 nM

B3: PTPSLKIM peptide (PTPSL residues 331-348) (peptide, UniProt Q15256 331-348, looked up)
peptide: IGLQERRGSNVSLTLDMS
notes: PTPSL/PTPBR7 (PTPRR, PTP STEP-like), residues 331-348 (KIM); human is stated for the PTPSL 332-655 construct; source: synthetic peptide (Biosynthesis, Inc.), HPLC purified, >98% purity
[6]
  Kd: 463 nM
  dH: -23.5 kcal/mol

B4: STEPKIM peptide (STEP residues 213-229) (peptide, UniProt P54830 213-229, looked up)
peptide: MGLQERRGSNVSLTLDM
notes: STEP (PTPN5, striatal enriched protein tyrosine phosphatase), residues 213-229 (KIM); mouse is stated for the STEP 213-539 construct; source: synthetic peptide (Biosynthesis, Inc.), HPLC purified, >98% purity
[5]
  Kd: 546 nM

B5: HePTP: HePTP (residues 15–339), hematopoietic protein tyrosine phosphatase (protein, UniProt P35236 15-339, looked up, fragment)
chain: TLSLGAAMTQPPPEKTPAKKHVRLQERRGSNVALMLDVRSLGAVEPICSVNTPREVTLHFLRTAGHPLTRWALQRQPPSPKQLEEEFLKIPSNFVSPEDLDIPGHASKDRYKTILPNPQSRVCLGRAQSQEDGDYINANYIRGYDGKEKVYIATQGPMPNTVSDFWEMVWQEEVSLIVMLTQLREGKEKCVHYWPTEEETYGPFQIRIQDMKECPEYTVRQLTIQYQEERRSVKHILFSAWPDHQTPESAGPLLRLVAEVEESPETAAHPGPIVVHCSAGIGRTGCFIATRIGCQQLKARGEVDILGIVCQLRLDRGGMIQTAEQ
[7]; [8]
  maximum dimension (Dmax): 110 Å
  radius of gyration (Rg): 33.3 Å
[7]; resting-state complex, SAXS
  shape of the complex with ERK2 (in words): highly extended in solution
[1]
  Kd: 371 ± 40 nM
  tighter binding to ERK2 than to p38α: ~7 times
[3]
  Kd: 2570 ± 650 nM

B6: PTPSL KIMKIS (PTPSL residues 332-373) (peptide, UniProt Q15256 332-373, looked up)
chain: GLQERRGSNVSLTLDMSSLGNIEPFVSIPTPREKVAMEYLQS
notes: PTPSL/PTPBR7 (PTPRR), residues 332-373 (KIM and KIS); human is stated for the PTPSL 332-655 construct; Recombinant, not synthetic; source: final SEC
[5]
  Kd: 825 nM

B7: PS_(Chimera) (PTPSL residues 332-373 with STEP residues 257-539) (other, human | mouse, UniProt Q15256 332-373, looked up)
chain: GLQERRGSNVSLTLDMSSLGNIEPFVSIPTPREKVAMEYLQSASRVLRAEELHEKALDPFLLQAEFFEIPMNFVDPKEYDIPGLVRKNRYKTILPNPHSRVRLTSPDPEDPLSSYINANYIRGYSGEEKVYIATQGPIVSTVADFWRMVWQERTPIIVMITNIEEMNEKCTEYWPEEQVVHDGVEITVQKVIHTEDYRLRLISLRRGTEERSLKHYWFTSWPDQKTPDRAPPLLHLVREVEEAAQQEGPHCSPIIVHCSAGIGRTGCFIATSICCQQLRREGVVDILKTTCQLRQDRGGMIQTCEQYQFVHHAMSLYEKQLSLQS
notes: PTPSL (PTPRR), residues 332-373 (KIM and KIS); human is stated for the PTPSL 332-655 construct; STEP (PTPN5), residues 257-539 (catalytic domain); mouse is stated for the STEP 213-539 construct; Chimera of PTPSL KIMKIS fused to STEPCAT; source: gene synthesized by DNA 2.0; final SEC
[6]
  Kd: 47 nM
  dH: -18.5 kcal/mol
[2]; ERK2, ITC
  relative binding to ERK2 (in words): binds to ERK2 with about equal binding strength as STEP
[2]; unphosphorylated ERK2, ITC, 25 °C, 10 mM Tris pH 7.5, 150 mM NaCl, 0.1 mM EDTA, 0.5 mM TCEP, average and standard deviation, triplicate
  TΔS: -8.5 ± 0.7 kcal/mol
[3]
  relative binding to p38α (in words): binds marginally more tightly to p38α than any of the WT-KIM-PTPs

From paper PMC3956856, “Interaction of Kinase-Interaction-Motif Protein Tyrosine Phosphatases with the Mitogen-Activated Protein Kinase ERK2” (PLoS ONE, 2014)
